Several values for one entry are separate records, joined by “and”; a condition that tells them apart may be missing. Equal values may be shown once. Each block holds one substance with its values, some of them ahead of it.
Key:
Format in all cases: physicochemical
[1] = Anderson Cascade Impactor testing of droplet delivery device with Albuterol sulfate (Example B); details: Albuterol 0.5%, 28.3 lpm
Description: FIGS. 21A-21E provide a summary of the test results.

[2] = Insulin stability after aerosol generation, size exclusion chromatography (SEC)
Description: Size Exclusion Chromatography (SEC): Alternately, to determine the stability of active agent after droplet generation, the generated stream of droplets including the active agent may be collected and SEC-HPLIC may be employed to monitor for any changes in large molecule aggregation and protein fragment content. Soluble protein aggregates and protein fragment content may be calculated by comparing respective peak area under the SEC-HPLC curve of dispensed protein solutions with controls (solutions remaining in the device reservoir).
Drug solutions for testing include Enbrel, (ENBREL® single-use prefilled syringes in 25 mg (0.51 mL of a 50 mg/mL solution of etanercept), and insulin, (Humalog, 200 units/ml, 3 ml kwikpens)
Aerosol collection and SEC is performed in a similar fashion as for the Enbrel analysis and aerosol collection.
Fifty microliters of the collected aerosol spray is injected onto the SEC column for analysis, while 50 mcl of the Kwikpen insulin solution is injected onto the SEC column for control samples.

[3] = Gel electrophoresis of active agent after droplet generation; details: 'will show'
Description: Gel Electrophoresis: To determine the stability of active agent after droplet generation, the generated stream of droplets including the active agent is collected and the molecular weight of the active agent is verified using gel electrophoresis.

[4] = Enbrel stability after aerosol generation, size exclusion chromatography (SEC)
Description: Size Exclusion Chromatography (SEC): Alternately, to determine the stability of active agent after droplet generation, the generated stream of droplets including the active agent may be collected and […] may be employed to monitor for any changes in large molecule aggregation and protein fragment content. Soluble protein aggregates and protein fragment content may be calculated by comparing respective peak area under the SEC-HPLC curve of dispensed protein solutions with controls (solutions remaining in the device reservoir). Drug solutions for testing include Enbrel, (ENBREL® single-use prefilled syringes in 25 mg (0.51 mL of a 50 mg/mL solution of etanercept), and insulin, (Humalog, 200 units/ml, 3 ml […] is performed with a YarraTM 3 μm SEC-2000 LC column 300×7.8 mm, SecurityGuard cartridge kit and SecurityGuard cartridges GFC-2000, 4×3 mm ID. Fifty microliters of Enbrel from the syringe (ENBREL® single-use prefilled syringes in 25 mg/0.51 mL of a 50 mg/mL solution of etanercept) is diluted (4:1) (4 parts, 200 mcl of the mobile phase buffer solution to 1 part, 50 mcl Enbrel from syringe). Fifty microliter of the diluted Enbrel is injected and separation was performed at a flow rate of 1.0 ml/min. The mobile phase buffer system included a PHOS. BUFF. SALINE. […] UV detection is performed at 280 nm. […] An ampule/cartridge is filled with either 0.20 ml of Enbrel® (50 mg/ml) diluted 4:1 (10 mg/ml) (4 parts (200 mcl) of PBS and 0.025% NaN3 and 1 part (50 mcl of Enbrel solution from the syringe). After 20 actuations and aerosolization, about 150 mcl of the aerosolized Enbrel solution is recovered and collected in the polypropylene tube located below the ejector mechanism. The control consists of the diluted Enbrel solution, 50 mcl of which is injected into the SEC column for analysis.

[5] = aerosolized samples S1, S2 (summary table)
[6] = control, Enbrel diluted 4:1 (10 mg/ml), SEC UV 280 nm

- Cum. % < ([1]; FILTER stage, 10 actuations): 0.00%
- Cum. % > ([1]; FILTER stage, 10 actuations): 100.00%
- Coarse ([1]; summary of deposition): 22.7
- Fine ([1]; summary of deposition): 3.5
- Mouthpiece ([1]; summary of deposition): 12.2
- Respirable ([1]; summary of deposition): 69.3
- Throat ([1]; summary of deposition): 4.6
Substance: Albuterol sulfate

Substance: Insulin: insulin, Humalog, 200 units/ml, 3 ml kwikpens
- Peak 3 [2, 5]: 2.797 and 2.184
- Peak 3 Peak Area % ([2]; control, Insulin from Kwikpen 200 U/ml, SEC): 0%
- ejected dose forming a fragment ([2]; fragment eluting at ~25 minutes): 2.5%

Substance: adalimumab
- change in the electrophoretic mobility, and hence the molecular weight, post-aerosol vs control [3]: negligible change

Substance: bevacizumab
- change in the electrophoretic mobility, and hence the molecular weight, post-aerosol vs control [3]: negligible change

Substance: etanercept [Enbrel]
- Peak 4 [4, 5]: 0.357 and 0.352
- Peak 5 [4, 5]: 5.123 and 3.428
- Peak 4 Peak Area % [4, 6]: 0%
- Peak 5 Peak Area % [4, 6]: 0%
- dose leading to formation of molecular fragments ([4]; fragments with elution times of 13 and 25 minutes): 4.6%
- change in the electrophoretic mobility, and hence the molecular weight, post-aerosol vs control [3]: negligible change

Reference: patent US12491324B2, “Droplet device with inertial filtering” (PNEUMA RESPIRATORY, INC., priority 2016, dated 2025)
